According to publication PMC5141500:

Key:
[1] = target: NTSR1-EL (baculovirus construct with wild-type ICL3) (rat) (UniProt P20789)
[2] = target: NTSR1-ELF (baculovirus construct with wild-type ICL3) (rat) (UniProt P20789)

Chain of Gq protein (P50148 whole entry, looked up): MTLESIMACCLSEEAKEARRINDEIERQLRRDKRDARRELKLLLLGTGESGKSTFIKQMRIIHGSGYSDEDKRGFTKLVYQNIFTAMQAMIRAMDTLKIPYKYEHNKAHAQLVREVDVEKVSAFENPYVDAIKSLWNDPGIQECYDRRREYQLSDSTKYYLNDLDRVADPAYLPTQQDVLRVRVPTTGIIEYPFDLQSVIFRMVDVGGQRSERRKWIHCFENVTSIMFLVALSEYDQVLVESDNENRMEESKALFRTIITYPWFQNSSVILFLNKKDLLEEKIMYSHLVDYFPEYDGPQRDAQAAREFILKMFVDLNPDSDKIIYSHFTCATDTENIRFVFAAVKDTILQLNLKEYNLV

Substance | Fold-stimulation by NTS GTPγS: GDP/[35S]GTPγS exchange on Gq at saturating NTS compared to no ligand, urea-washed P2 insect cell membranes and purified Gq protein [1] [fold] | Fold-stimulation by NTS GTPγS: GDP/[35S]GTPγS exchange on Gq at saturating NTS compared to no ligand, urea-washed P2 insect cell membranes and purified Gq protein [2] [fold] | EC50 (NTS) GTPγS, half maximal effective concentration of NTS on the exchange of GDP for GTPγS on Gq [1] [nM]
Gq protein (from UniProt P50148 1-359) (complex) | 3.3 | 5.6 | 
neurotensin (NTS) (peptide) |  |  | 5.5
